The values below come from the RNAGym collection of RNA variant scans (doi:10.1021/acssynbio.7b00057).

B1: Pistol ribozyme (parent)
chain: GGGUCGUUGUUCCAUAAUCGCGUGGAUAUGGCACGCAAGUUUCUACCGGGCACCGUAAAUGUCCGACUGGAGCCGUUCGGGCGGCUAUAAACAGACCUCAGGCCCGAAGCGUGGCGGCACCUGCCGCCGGUGGUAAAAAAGAUCGGAAGAGCACACGUCU

The variants in this series derive from B1. Description: aptazyme ON/OFF ratio, guanine; higher = stronger switching; co-transcriptional cleavage with and without guanine.
In the case of U8G G9C U11C C12A C13G, the “aptazyme ON/OFF ratio” value was 1.04. As for U8G G9C U11C C12A C13U, the “aptazyme ON/OFF ratio” value worked out at 1.04. For the variant U8G G9C U11C C12A C13A, the “aptazyme ON/OFF ratio” value was determined as 1.04. With U8G G9C U10C C12A C13A the figure was 1.05; with U8G G9C U10C C12A C13U, 1.05; with U8G G9C U10C C12A C13G, 1.06. As to U8G G9U C12A C13G, the “aptazyme ON/OFF ratio” value turned out to be 1.22. Take U8G G9U C12A C13A: the “aptazyme ON/OFF ratio” value was 1.41.

Consider U8G G9U C12A C13U, for which the “aptazyme ON/OFF ratio” value came to 1.07. With U8G G9C U10C U11G C12A C13U, the “aptazyme ON/OFF ratio” value was determined as 1.04. U8G G9C U10C U11G C12A C13A: the “aptazyme ON/OFF ratio” value was determined as 1.08.

Consider U8G G9C U10C U11G C12A C13G, for which the “aptazyme ON/OFF ratio” value stood at 1.05. Take U8G G9C U10G C12G C13A: the “aptazyme ON/OFF ratio” value was 1.08. With U8G G9C U10G C12G C13U the figure was 1.17. With U8G G9C U10G C12G C13G the figure was 1.08; with U8G G9U U10A U11C C12G C13U, 1.11; with U8G G9U U10A U11C C12G C13G, 1.11. With U8G G9U U10A U11C C12G C13A the figure was 1.08; with U8G G9U U10C U11G C12A, 1.12. For U8G G9U U10C U11G C12U, the “aptazyme ON/OFF ratio” value turned out to be 1.19. Turning to U8G G9U U10C U11G C12G, the “aptazyme ON/OFF ratio” value stood at 1.25.

Consider U8G G9U U10A C12G C13G, for which the “aptazyme ON/OFF ratio” value was 1.12. In the case of U8G G9U U10A C12G C13U, the “aptazyme ON/OFF ratio” value was 1.23. With U8G G9U U10A C12G C13A the figure was 1.2. On to U8G G9U C12A, for which the “aptazyme ON/OFF ratio” value was 1.57. U8G G9U C12U: the “aptazyme ON/OFF ratio” value came to 1.77. Take U8G G9U C12G: the “aptazyme ON/OFF ratio” value worked out at 1.64. With U8G G9U U10C U11A C12G, the “aptazyme ON/OFF ratio” value turned out to be 1.12. With U8G G9U U10C U11A C12A the figure was 1.14; with U8G G9U U10C U11A C12U, 1.11; with U8G G9U C12U C13U, 1.14. With U8G G9U C12U C13G the figure was 1.28; with U8G G9U C12U C13A, 1.22; with U8G G9U U10A C12G, 1.15. With U8G G9U U10A C12U the figure was 1.11; with U8G G9U U10A C12A, 1.43; with U8G G9C U10C U11A C12A, 1.05. On to U8G G9C U10C U11A C12G, for which the “aptazyme ON/OFF ratio” value was 1.06. With U8G G9C U10C U11A C12U the figure was 1.06. Consider U8G G9C U10G U11C C13U, for which the “aptazyme ON/OFF ratio” value turned out to be 1.04. With U8G G9C U10G U11C C13G the figure was 1.02; with U8G G9C U10G U11C C13A, 1.05. With U8G G9C U10G the figure was 1.19.

As for U8G G9C U10C, the “aptazyme ON/OFF ratio” value is 1.08. With U8G G9C U10C U11A C13U the figure was 1.1.

Regarding U8G G9C U10C U11A C13G, the “aptazyme ON/OFF ratio” value turned out to be 1.05. With U8G G9C U10C U11A C13A the figure was 1.09; with U8G G9C U10G U11A C12G C13A, 1.14. With U8G G9C U10G U11A C12G C13U the figure was 1.2; with U8G G9C U10G U11A C12G C13G, 1.29; with U8G G9C U11C, 1.03.

Take U8G G9C U11A: the “aptazyme ON/OFF ratio” value is 1.13. For the variant U8G G9C U11G, the “aptazyme ON/OFF ratio” value amounted to 1.14. With U8G G9U U10C C12A the figure was 1.19; with U8G G9U U10C C12U, 1.09. With U8G G9U U10C C12G the figure was 1.41. On to U8G G9C U10G C12U C13U, for which the “aptazyme ON/OFF ratio” value is 1.26. With U8G G9C U10G C12U C13G the figure was 1.11. With U8G G9C U10G C12U C13A the figure was 1.08; with U8G G9C U11G C12G, 1.15; with U8G G9C U11G C12U, 1.22. With U8G G9C U11G C12A the figure was 1.11.

With U8G G9U U10A U11C C12G, the “aptazyme ON/OFF ratio” value was found to be 1.1. On to U8G G9U U10A U11C C12U, for which the “aptazyme ON/OFF ratio” value was 1.05. With U8G G9U U10A U11C C12A the figure was 1.12. With U8G G9U U10C U11C C12G C13U the figure was 1.09; with U8G G9U U10C U11C C12G C13A, 1.07; with U8G G9U U10C U11C C12G C13G, 1.1.

As for U8G G9C U10G U11G C12A C13A, the “aptazyme ON/OFF ratio” value worked out at 1.18. With U8G G9C U10G U11G C12A C13G the figure was 1.15.

Take U8G G9C U10G U11G C12A C13U: the “aptazyme ON/OFF ratio” value turned out to be 1.3. Regarding U8G G9U U10G C12A, the “aptazyme ON/OFF ratio” value is 1.04. With U8G G9U U10G C12G the figure was 1.02. Regarding U8G G9U U10C U11A C12U C13U, the “aptazyme ON/OFF ratio” value turned out to be 1.08. With U8G G9U U10C U11A C12U C13A the figure was 1.08. In the case of U8G G9U U10C U11A C12U C13G, the “aptazyme ON/OFF ratio” value came to 1.11. In the case of U8G G9U U10C U11G C13G, the “aptazyme ON/OFF ratio” value turned out to be 1.03.

U8G G9U U10C U11G C13U: the “aptazyme ON/OFF ratio” value is 1.03.

On to U8G G9U U10C U11G C13A, for which the “aptazyme ON/OFF ratio” value amounted to 1.04. With U8G G9C U11G C12U C13G the figure was 1.13; with U8G G9C U11G C12U C13A, 1.1; with U8G G9C U11G C12U C13U, 1.25. With U8G G9U U10A C13G the figure was 1.06.
